The target of series [1] is TATA-binding protein (TBP), subunit of endogenous human TFIID (human, UniProt P20226 1-339). Put plainly: cryo-EM structure.
Series [2] concerns the molecule itself. Briefly: cryo-EM structure.

Chain of TATA-binding protein (TBP), subunit of endogenous human TFIID (P20226 whole entry): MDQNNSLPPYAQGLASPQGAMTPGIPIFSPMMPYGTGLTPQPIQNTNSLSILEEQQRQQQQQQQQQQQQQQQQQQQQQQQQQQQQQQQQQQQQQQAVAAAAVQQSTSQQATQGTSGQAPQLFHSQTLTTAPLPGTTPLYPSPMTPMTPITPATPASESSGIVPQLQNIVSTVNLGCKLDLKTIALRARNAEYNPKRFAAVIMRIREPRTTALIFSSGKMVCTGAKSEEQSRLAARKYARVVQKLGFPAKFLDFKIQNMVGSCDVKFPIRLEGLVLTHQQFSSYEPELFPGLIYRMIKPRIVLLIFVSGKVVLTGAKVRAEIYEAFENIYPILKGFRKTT

B1: human TFIIA (conserved three-subunit core TFIIA) (complex)
chain 1: ANSANTNTVPKLYRSVIEDVINDVRDIFLDDGVDEQVLMELKTLWENKLMQSRAVDG
chain 2: GAEDGQVEEEPLNSEDDVSDEEGQELFDTENVVVCQYDKIHRSKNKWKFHLKDGIMNLNGRDYIFSKAIGDAEW
chain 3: AYQLYRNTTLGNSLQESLDELIQSQQITPQLALQVLLQFDKAINAALAQRVRNRVNFRGSLNTYRFCDNVWTFVLNDVEFREVTELIKVDKVKIVACDGKNTGSNTTE
For the molecule B1, the binding result in series [1] is “binds”.

B2: TAF6, subunit of endogenous human TFIID (natural protein)
chain: not shown
For B2, the “stoichiometry N” value in series [2] turned out to be 2.

Source of the values: PMC4856295 (Nature, 2016).
